From US20250092426, “CAS ENDONUCLEASES AND RELATED METHODS” (Flagship Pioneering Innovations VII, LLC, published 2025)

Target: T1, CasEnd-22 (synthetic construct)
T1 chain: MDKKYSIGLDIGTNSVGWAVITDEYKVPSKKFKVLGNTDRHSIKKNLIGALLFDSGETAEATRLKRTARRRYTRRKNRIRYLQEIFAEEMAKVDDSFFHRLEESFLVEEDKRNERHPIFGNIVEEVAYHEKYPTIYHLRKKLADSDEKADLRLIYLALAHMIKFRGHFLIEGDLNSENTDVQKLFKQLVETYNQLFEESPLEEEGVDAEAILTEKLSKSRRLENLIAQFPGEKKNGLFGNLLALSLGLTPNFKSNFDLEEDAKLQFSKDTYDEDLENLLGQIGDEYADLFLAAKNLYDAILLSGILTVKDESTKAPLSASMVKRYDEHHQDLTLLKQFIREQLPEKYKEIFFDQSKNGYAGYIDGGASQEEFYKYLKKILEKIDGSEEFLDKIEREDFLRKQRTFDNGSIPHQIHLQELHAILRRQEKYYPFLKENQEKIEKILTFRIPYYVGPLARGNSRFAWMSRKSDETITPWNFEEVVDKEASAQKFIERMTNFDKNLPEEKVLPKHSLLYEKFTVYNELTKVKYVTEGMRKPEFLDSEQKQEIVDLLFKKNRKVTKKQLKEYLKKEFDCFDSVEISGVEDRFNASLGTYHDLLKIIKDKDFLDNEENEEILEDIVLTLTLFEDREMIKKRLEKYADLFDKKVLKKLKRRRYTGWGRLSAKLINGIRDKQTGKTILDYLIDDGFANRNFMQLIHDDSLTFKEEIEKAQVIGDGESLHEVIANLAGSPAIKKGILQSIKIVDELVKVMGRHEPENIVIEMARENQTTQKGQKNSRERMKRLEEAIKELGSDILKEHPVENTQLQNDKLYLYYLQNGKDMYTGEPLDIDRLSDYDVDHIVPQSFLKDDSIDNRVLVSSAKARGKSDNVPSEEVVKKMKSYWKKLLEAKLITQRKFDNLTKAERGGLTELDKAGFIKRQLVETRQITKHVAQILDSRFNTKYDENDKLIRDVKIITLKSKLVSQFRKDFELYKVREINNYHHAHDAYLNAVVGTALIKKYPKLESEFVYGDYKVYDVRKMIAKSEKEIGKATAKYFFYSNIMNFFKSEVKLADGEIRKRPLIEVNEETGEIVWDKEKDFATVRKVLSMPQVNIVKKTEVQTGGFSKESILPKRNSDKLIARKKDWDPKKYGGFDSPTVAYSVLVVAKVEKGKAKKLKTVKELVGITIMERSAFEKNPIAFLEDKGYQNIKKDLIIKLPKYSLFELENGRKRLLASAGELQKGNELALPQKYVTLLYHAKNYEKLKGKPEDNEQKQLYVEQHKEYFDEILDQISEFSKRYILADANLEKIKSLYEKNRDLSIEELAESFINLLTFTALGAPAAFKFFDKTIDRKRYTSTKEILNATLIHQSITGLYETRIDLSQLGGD
Experiment: cell_activity; +++; K562, second nick guide SEQ 380; PAM not stated
Procedure: The ability of the candidate endonucleases, including endonucleases 1-38 (CasEnds 1-38) (set forth in Table 1 and SEQ ID NOS: 1-38, respectively), to mediate target nucleic acid editing in cells was assessed by amplicon sequencing of the endogenous hemoglobin subunit beta (eHBB) gene, wherein the percent of amplicons displaying the intended edit is measured. The editing system is comprised of a template RNA (designed to introduce the Single Nucleotide Polymorphism), a second nick guide RNA, and a fusion protein consisting of retroviral reverse transcriptase and the individual subject Cas endonuclease.
Briefly, 250 ng of plasmid DNA encoding the subject fusion protein (containing one of the subject CasEnds), 250 ng each of plasmid DNA encoding the template RNA and the second nick guide RNA were added to 15 μL Lonza SF buffer containing 250,000 K562 cells. Nucleofection was mediated utilizing program FF-120-DA on a Lonza nucleofector. The day of nucleofection was marked as day 0. At day 3, the cells were harvested and subjected to lysis buffer treatment overnight. Genomic DNA was extracted and used for targeted amplicon sequencing to evaluate the performance of each Cas endonucleases based on their percent edit efficiencies.

B1: HBB template RNA ; HBB protospacer (ssRNA ; dsDNA)
RNA: CAUGGUGCACCUGACUCCUGGUUUUAGAGCUAGAAAUAGCAAGUUAAAAUAAGGCUAGUCCGUUAUCAACUUGAAAAAGUGGCACCGAGUCGGUGCACGGCAGACUUCUCUGCCGGAGUCAGGUGC
DNA 1: CATGGTGCACCTGACTCCTG
DNA 2: CAGGAGTCAGGTGCACCATG
**Q.** Which activity does the source give for B1 here?
**A.** ≥ 100 % of reference
